Source: publication PMC6884320

Tested on: Glu92
Assay: kinetics

AlleyCat2 (second-round evolved AlleyCat) (M144R; other substitutions not stated (includes the AlleyCat mutation that gives Glu92))
pKa (not stated (Figure S14 not available), Ca2+-bound, turning over leflunomide): 7.06 ± 0.02 | pKa (turning over the Kemp elimination substrate, cited from earlier work): 6.73 ± 0.03
